From the supplement of paper PMC9112550, “Optimization of the antimicrobial peptide Bac7 by deep mutational scanning” (BMC Biology, 2022)

System: Escherichia coli TOP10
Assay: shrunken log2 fold change of peptide-encoding DNA abundance (4.5 h post-induction vs induction); higher = less antimicrobial activity (less host growth inhibition)
Conditions: time post-induction: 4.5 h; library: site-saturation at positions 5, 18, 19, 20
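Also: peptides expressed intracellularly from a pBAD plasmid library in pooled LB shake-flask culture, induced with 0.3% L-arabinose, DNA abundance read by NGS, three biological replicates, DESeq2 with apeglm shrinkage.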

RRIRYRPPRLPRPRPRPDMWPRP
shrunken log2 fold change: -1.03

RRIRYRPPRLPRPRPRPDQQPRP
shrunken log2 fold change: -0.0144

RRIRYRPPRLPRPRPRPDTIPRP
shrunken log2 fold change: -0.145

RRIRYRPPRLPRPRPRPDYPPRP
shrunken log2 fold change: -0.14

RRIRYRPPRLPRPRPRPDYTPRP
shrunken log2 fold change: -0.174

RRIRYRPPRLPRPRPRPEALPRP
shrunken log2 fold change: -0.23

RRIRYRPPRLPRPRPRPEAVPRP
shrunken log2 fold change: 0.0685

RRIRYRPPRLPRPRPRPEDKPRP
shrunken log2 fold change: -0.0222

RRIRYRPPRLPRPRPRPEELPRP
shrunken log2 fold change: -0.0326

RRIRYRPPRLPRPRPRPEENPRP
shrunken log2 fold change: -0.0116

RRIRYRPPRLPRPRPRPEFAPRP
shrunken log2 fold change: -0.167

RRIRYRPPRLPRPRPRPEGFPRP
shrunken log2 fold change: -0.487

RRIRYRPPRLPRPRPRPEKCPRP
shrunken log2 fold change: -0.26

RRIRYRPPRLPRPRPRPEKLPRP
shrunken log2 fold change: -0.034

RRIRYRPPRLPRPRPRPELFPRP
shrunken log2 fold change: -0.0192

RRIRYRPPRLPRPRPRPELIPRP
shrunken log2 fold change: -0.363

RRIRYRPPRLPRPRPRPEMAPRP
shrunken log2 fold change: -0.107

RRIRYRPPRLPRPRPRPEMGPRP
shrunken log2 fold change: -0.0771

RRIRYRPPRLPRPRPRPENIPRP
shrunken log2 fold change: -0.105

RRIRYRPPRLPRPRPRPENQPRP
shrunken log2 fold change: -0.222

RRIRYRPPRLPRPRPRPENWPRP
shrunken log2 fold change: -0.223

RRIRYRPPRLPRPRPRPEPAPRP
shrunken log2 fold change: 0.168

RRIRYRPPRLPRPRPRPEPVPRP
shrunken log2 fold change: -0.00973

RRIRYRPPRLPRPRPRPERHPRP
shrunken log2 fold change: -0.0384

RRIRYRPPRLPRPRPRPESQPRP
shrunken log2 fold change: -0.0411

RRIRYRPPRLPRPRPRPESTPRP
shrunken log2 fold change: -0.00514

RRIRYRPPRLPRPRPRPETQPRP
shrunken log2 fold change: -0.00798

RRIRYRPPRLPRPRPRPFDPPRP
shrunken log2 fold change: -0.199

RRIRYRPPRLPRPRPRPFEGPRP
shrunken log2 fold change: -0.000989

RRIRYRPPRLPRPRPRPFEMPRP
shrunken log2 fold change: -0.738

RRIRYRPPRLPRPRPRPFEPPRP
shrunken log2 fold change: -0.343

RRIRYRPPRLPRPRPRPFFQPRP
shrunken log2 fold change: -0.428

RRIRYRPPRLPRPRPRPFGMPRP
shrunken log2 fold change: -0.00968

RRIRYRPPRLPRPRPRPFIKPRP
shrunken log2 fold change: -0.263

RRIRYRPPRLPRPRPRPFLVPRP
shrunken log2 fold change: -1.03

RRIRYRPPRLPRPRPRPFLYPRP
shrunken log2 fold change: -0.881

RRIRYRPPRLPRPRPRPFPCPRP
shrunken log2 fold change: -0.467

RRIRYRPPRLPRPRPRPFPLPRP
shrunken log2 fold change: -0.109

RRIRYRPPRLPRPRPRPFPWPRP
shrunken log2 fold change: -0.18

RRIRYRPPRLPRPRPRPFRPPRP
shrunken log2 fold change: -0.0325

RRIRYRPPRLPRPRPRPFTCPRP
shrunken log2 fold change: -0.103

RRIRYRPPRLPRPRPRPFTTPRP
shrunken log2 fold change: 0.0402

RRIRYRPPRLPRPRPRPFWAPRP
shrunken log2 fold change: -0.306

RRIRYRPPRLPRPRPRPFWTPRP
shrunken log2 fold change: -0.111

RRIRYRPPRLPRPRPRPFYDPRP
shrunken log2 fold change: -0.708

RRIRYRPPRLPRPRPRPFYQPRP
shrunken log2 fold change: -0.224

RRIRYRPPRLPRPRPRPFYSPRP
shrunken log2 fold change: -1.23

RRIRYRPPRLPRPRPRPFYWPRP
shrunken log2 fold change: -1.7

RRIRYRPPRLPRPRPRPFYYPRP
shrunken log2 fold change: -1.18

RRIRYRPPRLPRPRPRPGANPRP
shrunken log2 fold change: -0.0888

RRIRYRPPRLPRPRPRPGCAPRP
shrunken log2 fold change: -0.139

RRIRYRPPRLPRPRPRPGCLPRP
shrunken log2 fold change: 1.79

RRIRYRPPRLPRPRPRPGCTPRP
shrunken log2 fold change: -0.0794

RRIRYRPPRLPRPRPRPGDHPRP
shrunken log2 fold change: 0.0294

RRIRYRPPRLPRPRPRPGECPRP
shrunken log2 fold change: -0.489

RRIRYRPPRLPRPRPRPGFSPRP
shrunken log2 fold change: -0.0944

RRIRYRPPRLPRPRPRPGHQPRP
shrunken log2 fold change: 0.0299

RRIRYRPPRLPRPRPRPGIYPRP
shrunken log2 fold change: -0.288

RRIRYRPPRLPRPRPRPGKFPRP
shrunken log2 fold change: -0.0427

RRIRYRPPRLPRPRPRPGKYPRP
shrunken log2 fold change: -0.466

RRIRYRPPRLPRPRPRPGLDPRP
shrunken log2 fold change: -0.188

RRIRYRPPRLPRPRPRPGLMPRP
shrunken log2 fold change: -0.103

RRIRYRPPRLPRPRPRPGMDPRP
shrunken log2 fold change: -0.299

RRIRYRPPRLPRPRPRPGMFPRP
shrunken log2 fold change: -0.524

RRIRYRPPRLPRPRPRPGMLPRP
shrunken log2 fold change: -0.139

RRIRYRPPRLPRPRPRPGMWPRP
shrunken log2 fold change: 0.234

RRIRYRPPRLPRPRPRPGNEPRP
shrunken log2 fold change: -0.229

RRIRYRPPRLPRPRPRPGNLPRP
shrunken log2 fold change: 0.0185

RRIRYRPPRLPRPRPRPGNVPRP
shrunken log2 fold change: 0.0571

RRIRYRPPRLPRPRPRPGPPPRP
shrunken log2 fold change: 0.277

RRIRYRPPRLPRPRPRPGQGPRP
shrunken log2 fold change: -0.0311

RRIRYRPPRLPRPRPRPGQYPRP
shrunken log2 fold change: -0.414

RRIRYRPPRLPRPRPRPGSSPRP
shrunken log2 fold change: -0.853

RRIRYRPPRLPRPRPRPGVAPRP
shrunken log2 fold change: 0.182

RRIRYRPPRLPRPRPRPGVIPRP
shrunken log2 fold change: -0.297

RRIRYRPPRLPRPRPRPGVNPRP
shrunken log2 fold change: -3.04

RRIRYRPPRLPRPRPRPGWAPRP
shrunken log2 fold change: 0.0172

RRIRYRPPRLPRPRPRPGWIPRP
shrunken log2 fold change: -0.328

RRIRYRPPRLPRPRPRPGWPPRP
shrunken log2 fold change: 0.0827

RRIRYRPPRLPRPRPRPGWQPRP
shrunken log2 fold change: 0.015

RRIRYRPPRLPRPRPRPGWTPRP
shrunken log2 fold change: -0.103

RRIRYRPPRLPRPRPRPGYEPRP
shrunken log2 fold change: 0.026

RRIRYRPPRLPRPRPRPGYWPRP
shrunken log2 fold change: -0.154

RRIRYRPPRLPRPRPRPHALPRP
shrunken log2 fold change: -0.656

RRIRYRPPRLPRPRPRPHAVPRP
shrunken log2 fold change: -0.4

RRIRYRPPRLPRPRPRPHCDPRP
shrunken log2 fold change: -0.0698

RRIRYRPPRLPRPRPRPHCQPRP
shrunken log2 fold change: -0.297

RRIRYRPPRLPRPRPRPHGHPRP
shrunken log2 fold change: -0.358

RRIRYRPPRLPRPRPRPHGRPRP
shrunken log2 fold change: -0.00992

RRIRYRPPRLPRPRPRPHGWPRP
shrunken log2 fold change: -0.0273

RRIRYRPPRLPRPRPRPHITPRP
shrunken log2 fold change: -0.538

RRIRYRPPRLPRPRPRPHKAPRP
shrunken log2 fold change: -0.0167

RRIRYRPPRLPRPRPRPHKVPRP
shrunken log2 fold change: -0.739

RRIRYRPPRLPRPRPRPHMEPRP
shrunken log2 fold change: -0.249

RRIRYRPPRLPRPRPRPHMLPRP
shrunken log2 fold change: -1.09

RRIRYRPPRLPRPRPRPHMQPRP
shrunken log2 fold change: -1.07

RRIRYRPPRLPRPRPRPHNAPRP
shrunken log2 fold change: -1.21

RRIRYRPPRLPRPRPRPHQTPRP
shrunken log2 fold change: 0.0583

RRIRYRPPRLPRPRPRPHSIPRP
shrunken log2 fold change: -0.311

RRIRYRPPRLPRPRPRPHTFPRP
shrunken log2 fold change: -0.14

RRIRYRPPRLPRPRPRPHVKPRP
shrunken log2 fold change: -0.00472

RRIRYRPPRLPRPRPRPHYDPRP
shrunken log2 fold change: -0.557

RRIRYRPPRLPRPRPRPIAVPRP
shrunken log2 fold change: -0.321

RRIRYRPPRLPRPRPRPIDAPRP
shrunken log2 fold change: -0.284

RRIRYRPPRLPRPRPRPIDPPRP
shrunken log2 fold change: -0.00088

RRIRYRPPRLPRPRPRPIDWPRP
shrunken log2 fold change: 0.0205

RRIRYRPPRLPRPRPRPIFFPRP
shrunken log2 fold change: -0.353

RRIRYRPPRLPRPRPRPIGPPRP
shrunken log2 fold change: -0.00962

RRIRYRPPRLPRPRPRPIIVPRP
shrunken log2 fold change: -0.249

RRIRYRPPRLPRPRPRPIKFPRP
shrunken log2 fold change: -0.244

RRIRYRPPRLPRPRPRPIKKPRP
shrunken log2 fold change: 0.017

RRIRYRPPRLPRPRPRPIPPPRP
shrunken log2 fold change: -0.171

RRIRYRPPRLPRPRPRPIQPPRP
shrunken log2 fold change: 0.00143

RRIRYRPPRLPRPRPRPISSPRP
shrunken log2 fold change: -0.262

RRIRYRPPRLPRPRPRPITGPRP
shrunken log2 fold change: 0.0176

RRIRYRPPRLPRPRPRPITMPRP
shrunken log2 fold change: -1.13

RRIRYRPPRLPRPRPRPITTPRP
shrunken log2 fold change: 0.0271

RRIRYRPPRLPRPRPRPIVCPRP
shrunken log2 fold change: -0.134

RRIRYRPPRLPRPRPRPIWYPRP
shrunken log2 fold change: -0.0575

RRIRYRPPRLPRPRPRPIYKPRP
shrunken log2 fold change: -0.396

RRIRYRPPRLPRPRPRPKAVPRP
shrunken log2 fold change: -0.163

RRIRYRPPRLPRPRPRPKAYPRP
shrunken log2 fold change: 0.00787

RRIRYRPPRLPRPRPRPKCQPRP
shrunken log2 fold change: -0.182

RRIRYRPPRLPRPRPRPKEFPRP
shrunken log2 fold change: -0.00973

RRIRYRPPRLPRPRPRPKEMPRP
shrunken log2 fold change: -0.259

RRIRYRPPRLPRPRPRPKERPRP
shrunken log2 fold change: -0.002

RRIRYRPPRLPRPRPRPKFQPRP
shrunken log2 fold change: -0.0557

RRIRYRPPRLPRPRPRPKGEPRP
shrunken log2 fold change: -0.212

RRIRYRPPRLPRPRPRPKGRPRP
shrunken log2 fold change: -0.258

RRIRYRPPRLPRPRPRPKGSPRP
shrunken log2 fold change: -0.143

RRIRYRPPRLPRPRPRPKLVPRP
shrunken log2 fold change: -0.067

RRIRYRPPRLPRPRPRPKMMPRP
shrunken log2 fold change: -1.3

RRIRYRPPRLPRPRPRPKMSPRP
shrunken log2 fold change: -0.562

RRIRYRPPRLPRPRPRPKNSPRP
shrunken log2 fold change: -1.22

RRIRYRPPRLPRPRPRPKNWPRP
shrunken log2 fold change: -0.3

RRIRYRPPRLPRPRPRPKPFPRP
shrunken log2 fold change: 0.0506

RRIRYRPPRLPRPRPRPKPNPRP
shrunken log2 fold change: -0.158

RRIRYRPPRLPRPRPRPKQAPRP
shrunken log2 fold change: 0.0341

RRIRYRPPRLPRPRPRPKQSPRP
shrunken log2 fold change: -0.156

RRIRYRPPRLPRPRPRPKRCPRP
shrunken log2 fold change: 0.0441

RRIRYRPPRLPRPRPRPKTIPRP
shrunken log2 fold change: -0.421

RRIRYRPPRLPRPRPRPKTSPRP
shrunken log2 fold change: -0.595

RRIRYRPPRLPRPRPRPKWGPRP
shrunken log2 fold change: -0.297

RRIRYRPPRLPRPRPRPKWHPRP
shrunken log2 fold change: -0.358

RRIRYRPPRLPRPRPRPKYGPRP
shrunken log2 fold change: -0.176

RRIRYRPPRLPRPRPRPKYRPRP
shrunken log2 fold change: -0.0133

RRIRYRPPRLPRPRPRPLAEPRP
shrunken log2 fold change: -0.149

RRIRYRPPRLPRPRPRPLALPRP
shrunken log2 fold change: -0.816

RRIRYRPPRLPRPRPRPLCMPRP
shrunken log2 fold change: -0.795

RRIRYRPPRLPRPRPRPLCYPRP
shrunken log2 fold change: -1
